In article PMC9482650, “Quantitative fragmentomics allow affinity mapping of interactomes” (Nature Communications, 2022):

target: MAST1, Q9Y2H9; experiment: holdup assay; parameters: key: below the threshold = too weak to quantify, mostly under pKd 3.1 to 4; conditions: plain residues with an end cap or a label only (N-terminal biotin on a linker: ado-ado)
Sequence (Q9Y2H9 962-1065): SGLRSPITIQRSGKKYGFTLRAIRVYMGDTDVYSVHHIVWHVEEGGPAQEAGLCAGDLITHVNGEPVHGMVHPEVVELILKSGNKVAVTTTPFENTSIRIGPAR

**Q.** How did the pKd turn out when TGLWKSETTV [ADGRA2, Q96PE1] was run?
**A.** The pKd was 4.68.

target: T1, NHERF3_4, Q5T2W1; experiment: holdup assay; parameters: key: below the threshold = too weak to quantify, mostly under pKd 3.1 to 4; conditions: plain residues with an end cap or a label only (N-terminal biotin on a linker: ado-ado)
T1 sequence (Q5T2W1 373-468, limits assumed, looked up): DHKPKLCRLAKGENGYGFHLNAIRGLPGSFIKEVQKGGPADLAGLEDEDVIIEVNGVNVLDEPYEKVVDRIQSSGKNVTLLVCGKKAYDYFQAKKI

**Q.** With TGLWKSETTV [ADGRA2, Q96PE1] as the binder, how does the pKd read?
**A.** Its pKd is “below the threshold”.

target: T2, SNTG2, Q9NY99; experiment: holdup assay; parameters: key: below the threshold = too weak to quantify, mostly under pKd 3.1 to 4; conditions: plain residues with an end cap or a label only (N-terminal biotin on a linker: ado-ado)
T2 sequence (Q9NY99 68-166, limits assumed, looked up): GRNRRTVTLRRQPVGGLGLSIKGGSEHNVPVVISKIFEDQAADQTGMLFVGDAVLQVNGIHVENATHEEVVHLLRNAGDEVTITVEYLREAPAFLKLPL

**Q.** TGLWKSETTV [ADGRA2, Q96PE1] was tested. Which pKd did it give?
**A.** Its pKd is 4.14.

target: GRIP2_4, Q9C0E4; experiment: holdup assay; parameters: key: below the threshold = too weak to quantify, mostly under pKd 3.1 to 4; conditions: plain residues with an end cap or a label only (N-terminal biotin on a linker: ado-ado)
Sequence (Q9C0E4 446-548): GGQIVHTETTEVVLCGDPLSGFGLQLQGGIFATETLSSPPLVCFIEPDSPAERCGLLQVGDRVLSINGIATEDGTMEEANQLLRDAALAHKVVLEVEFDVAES

**Q.** How did the pKd turn out when TGLWKSETTV [ADGRA2, Q96PE1] was run?
**A.** The pKd was “below the threshold”.

target: MAST2, Q6P0Q8; experiment: holdup assay; parameters: key: below the threshold = too weak to quantify, mostly under pKd 3.1 to 4; conditions: plain residues with an end cap or a label only (N-terminal biotin on a linker: ado-ado)
Sequence (Q6P0Q8 1099-1202): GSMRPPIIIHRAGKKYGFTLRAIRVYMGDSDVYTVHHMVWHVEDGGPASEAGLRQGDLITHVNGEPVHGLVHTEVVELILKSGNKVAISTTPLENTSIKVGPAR

**Q.** With TGLWKSETTV [ADGRA2, Q96PE1] as the binder, how does the pKd read?
**A.** Its pKd is 5.23.

target: T3, PARD3B_1, Q8TEW8; experiment: holdup assay; parameters: key: below the threshold = too weak to quantify, mostly under pKd 3.1 to 4; conditions: plain residues with an end cap or a label only (N-terminal biotin on a linker: ado-ado)
T3 sequence (Q8TEW8 196-299, limits assumed, looked up): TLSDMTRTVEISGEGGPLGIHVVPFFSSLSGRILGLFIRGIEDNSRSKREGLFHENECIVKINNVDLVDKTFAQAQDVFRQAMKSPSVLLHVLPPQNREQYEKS

**Q.** For TGLWKSETTV [ADGRA2, Q96PE1], which pKd is on record?
**A.** Its pKd is “below the threshold”.

target: FRMPD2_1, Q68DX3; experiment: holdup assay; parameters: key: below the threshold = too weak to quantify, mostly under pKd 3.1 to 4; conditions: plain residues with an end cap or a label only (N-terminal biotin on a linker: ado-ado)
Sequence (Q68DX3 770-861): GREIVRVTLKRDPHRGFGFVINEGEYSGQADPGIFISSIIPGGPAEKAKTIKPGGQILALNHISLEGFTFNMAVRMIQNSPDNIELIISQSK

**Q.** How did the pKd turn out when TGLWKSETTV [ADGRA2, Q96PE1] was run?
**A.** The pKd was “below the threshold”.

target: GORASP2, Q9H8Y8; experiment: holdup assay; parameters: key: below the threshold = too weak to quantify, mostly under pKd 3.1 to 4; conditions: plain residues with an end cap or a label only (N-terminal biotin on a linker: ado-ado)

**Q.** TGLWKSETTV [ADGRA2, Q96PE1] was tested. Which pKd did it give?
**A.** Its pKd is 3.9.

target: Inadl_8, Q8NI35; experiment: holdup assay; parameters: key: below the threshold = too weak to quantify, mostly under pKd 3.1 to 4; conditions: plain residues with an end cap or a label only (N-terminal biotin on a linker: ado-ado)
Sequence (Q8NI35 1425-1530): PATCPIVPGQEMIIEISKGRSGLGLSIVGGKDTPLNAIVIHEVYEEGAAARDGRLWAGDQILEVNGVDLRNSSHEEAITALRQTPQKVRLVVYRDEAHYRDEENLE

**Q.** With TGLWKSETTV [ADGRA2, Q96PE1] as the binder, how does the pKd read?
**A.** Its pKd is 3.65.

target: LNX1_2, Q8TBB1; experiment: holdup assay; parameters: key: below the threshold = too weak to quantify, mostly under pKd 3.1 to 4; conditions: plain residues with an end cap or a label only (N-terminal biotin on a linker: ado-ado)
Sequence (Q8TBB1 371-470): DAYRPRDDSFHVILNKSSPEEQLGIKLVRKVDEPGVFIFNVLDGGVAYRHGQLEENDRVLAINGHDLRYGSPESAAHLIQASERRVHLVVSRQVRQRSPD

**Q.** Which pKd does the source give for TGLWKSETTV [ADGRA2, Q96PE1] here?
**A.** The pKd was 3.89.

target: GRID2IP_2, A4D2P6; experiment: holdup assay; parameters: key: below the threshold = too weak to quantify, mostly under pKd 3.1 to 4; conditions: plain residues with an end cap or a label only (N-terminal biotin on a linker: ado-ado)
Sequence (A4D2P6 272-370): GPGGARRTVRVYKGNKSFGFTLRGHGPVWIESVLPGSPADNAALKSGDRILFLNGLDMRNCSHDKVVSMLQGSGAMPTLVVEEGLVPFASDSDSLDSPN

**Q.** For TGLWKSETTV [ADGRA2, Q96PE1], which pKd is on record?
**A.** Its pKd is “below the threshold”.

target: T4, DLG3_1, Q92796; experiment: holdup assay; parameters: key: below the threshold = too weak to quantify, mostly under pKd 3.1 to 4; conditions: plain residues with an end cap or a label only (N-terminal biotin on a linker: ado-ado)
T4 sequence (Q92796 125-227, limits assumed, looked up): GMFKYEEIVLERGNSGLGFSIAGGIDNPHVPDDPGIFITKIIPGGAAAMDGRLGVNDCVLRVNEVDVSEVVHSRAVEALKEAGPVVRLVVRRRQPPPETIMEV

**Q.** How did the pKd turn out when TGLWKSETTV [ADGRA2, Q96PE1] was run?
**A.** Its pKd is 4.43.

target: T5, APBA2_1, Q99767; experiment: holdup assay; parameters: key: below the threshold = too weak to quantify, mostly under pKd 3.1 to 4; conditions: plain residues with an end cap or a label only (N-terminal biotin on a linker: ado-ado)
T5 sequence (Q99767 563-664, limits assumed, looked up): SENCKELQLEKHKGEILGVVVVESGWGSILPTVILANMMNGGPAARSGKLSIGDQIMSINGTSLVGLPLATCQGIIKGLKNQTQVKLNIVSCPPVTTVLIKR

**Q.** TGLWKSETTV [ADGRA2, Q96PE1] was tested. Which pKd did it give?
**A.** The pKd was “below the threshold”.

target: Inadl_6, Q8NI35; experiment: holdup assay; parameters: key: below the threshold = too weak to quantify, mostly under pKd 3.1 to 4; conditions: plain residues with an end cap or a label only (N-terminal biotin on a linker: ado-ado)
Sequence (Q8NI35 1058-1167): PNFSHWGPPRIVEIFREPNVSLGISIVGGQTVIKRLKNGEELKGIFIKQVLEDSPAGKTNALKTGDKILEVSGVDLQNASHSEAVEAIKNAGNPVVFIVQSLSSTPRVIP

**Q.** Which pKd does the source give for TGLWKSETTV [ADGRA2, Q96PE1] here?
**A.** The pKd was “below the threshold”.

target: LIMK2, P53671; experiment: holdup assay; parameters: key: below the threshold = too weak to quantify, mostly under pKd 3.1 to 4; conditions: plain residues with an end cap or a label only (N-terminal biotin on a linker: ado-ado)
Sequence (P53671 143-248): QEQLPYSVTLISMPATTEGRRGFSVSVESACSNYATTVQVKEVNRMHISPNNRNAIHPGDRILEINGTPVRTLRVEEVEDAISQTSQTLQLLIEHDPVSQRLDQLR

**Q.** TGLWKSETTV [ADGRA2, Q96PE1] was tested. Which pKd did it give?
**A.** Its pKd is “below the threshold”.

target: IL16_3, Q14005; experiment: holdup assay; parameters: key: below the threshold = too weak to quantify, mostly under pKd 3.1 to 4; conditions: plain residues with an end cap or a label only (N-terminal biotin on a linker: ado-ado)
Sequence (Q14005 1107-1207): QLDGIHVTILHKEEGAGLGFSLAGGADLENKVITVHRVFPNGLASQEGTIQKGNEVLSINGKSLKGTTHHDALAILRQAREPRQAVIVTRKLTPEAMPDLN

**Q.** TGLWKSETTV [ADGRA2, Q96PE1] was tested. Which pKd did it give?
**A.** Its pKd is “below the threshold”.

target: T6, DLG3_2, Q92796; experiment: holdup assay; parameters: key: below the threshold = too weak to quantify, mostly under pKd 3.1 to 4; conditions: plain residues with an end cap or a label only (N-terminal biotin on a linker: ado-ado)
T6 sequence (Q92796 221-321, limits assumed, looked up): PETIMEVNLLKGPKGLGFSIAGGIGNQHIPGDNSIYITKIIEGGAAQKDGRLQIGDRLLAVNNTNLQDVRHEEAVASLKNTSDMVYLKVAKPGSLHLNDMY

**Q.** How did the pKd turn out when TGLWKSETTV [ADGRA2, Q96PE1] was run?
**A.** The pKd was 5.07.

target: PARD3_3, Q8TEW0; experiment: holdup assay; parameters: key: below the threshold = too weak to quantify, mostly under pKd 3.1 to 4; conditions: plain residues with an end cap or a label only (N-terminal biotin on a linker: ado-ado)
Sequence (Q8TEW0 582-685): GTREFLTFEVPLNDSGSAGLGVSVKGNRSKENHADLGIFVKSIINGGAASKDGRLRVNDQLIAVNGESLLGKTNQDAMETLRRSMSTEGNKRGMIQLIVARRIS

**Q.** How did the pKd turn out when TGLWKSETTV [ADGRA2, Q96PE1] was run?
**A.** The pKd was “below the threshold”.

target: SCRIB_2, Q14160; experiment: holdup assay; parameters: key: below the threshold = too weak to quantify, mostly under pKd 3.1 to 4; conditions: plain residues with an end cap or a label only (N-terminal biotin on a linker: ado-ado)
Sequence (Q14160 857-960): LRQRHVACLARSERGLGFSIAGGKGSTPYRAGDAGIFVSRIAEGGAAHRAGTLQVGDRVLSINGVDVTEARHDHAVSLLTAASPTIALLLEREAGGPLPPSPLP

**Q.** TGLWKSETTV [ADGRA2, Q96PE1] was tested. Which pKd did it give?
**A.** The pKd was 4.31.

target: LNX1_1, Q8TBB1; experiment: holdup assay; parameters: key: below the threshold = too weak to quantify, mostly under pKd 3.1 to 4; conditions: plain residues with an end cap or a label only (N-terminal biotin on a linker: ado-ado)
Sequence (Q8TBB1 261-371): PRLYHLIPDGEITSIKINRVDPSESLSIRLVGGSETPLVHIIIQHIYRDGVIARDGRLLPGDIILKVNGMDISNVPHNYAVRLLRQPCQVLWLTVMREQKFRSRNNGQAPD

**Q.** With TGLWKSETTV [ADGRA2, Q96PE1] as the binder, how does the pKd read?
**A.** Its pKd is “below the threshold”.

target: SCRIB_1, Q14160; experiment: holdup assay; parameters: key: below the threshold = too weak to quantify, mostly under pKd 3.1 to 4; conditions: plain residues with an end cap or a label only (N-terminal biotin on a linker: ado-ado)
Sequence (Q14160 718-814): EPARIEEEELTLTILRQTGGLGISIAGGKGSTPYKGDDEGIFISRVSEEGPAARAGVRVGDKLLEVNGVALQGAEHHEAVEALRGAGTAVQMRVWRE

**Q.** TGLWKSETTV [ADGRA2, Q96PE1] was tested. Which pKd did it give?
**A.** Its pKd is 4.34.

target: T7, SHANK1, Q9Y566; experiment: holdup assay; parameters: key: below the threshold = too weak to quantify, mostly under pKd 3.1 to 4; conditions: plain residues with an end cap or a label only (N-terminal biotin on a linker: ado-ado)
T7 sequence (Q9Y566 658-767, limits assumed, looked up): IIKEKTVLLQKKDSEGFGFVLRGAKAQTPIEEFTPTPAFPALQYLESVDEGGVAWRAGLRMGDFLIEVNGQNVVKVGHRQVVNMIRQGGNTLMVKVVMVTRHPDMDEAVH

**Q.** Which pKd does the source give for TGLWKSETTV [ADGRA2, Q96PE1] here?
**A.** The pKd was “below the threshold”.

target: T8, RHPN1, Q8TCX5; experiment: holdup assay; parameters: key: below the threshold = too weak to quantify, mostly under pKd 3.1 to 4; conditions: plain residues with an end cap or a label only (N-terminal biotin on a linker: ado-ado)
T8 sequence (Q8TCX5 508-602, limits assumed, looked up): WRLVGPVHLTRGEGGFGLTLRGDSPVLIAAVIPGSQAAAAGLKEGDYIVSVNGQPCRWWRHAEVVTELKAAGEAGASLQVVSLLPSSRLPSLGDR

**Q.** Which pKd does the source give for TGLWKSETTV [ADGRA2, Q96PE1] here?
**A.** Its pKd is 4.33.

target: T9, DVL3, Q92997; experiment: holdup assay; parameters: key: below the threshold = too weak to quantify, mostly under pKd 3.1 to 4; conditions: plain residues with an end cap or a label only (N-terminal biotin on a linker: ado-ado)
T9 sequence (Q92997 244-331, limits assumed, looked up): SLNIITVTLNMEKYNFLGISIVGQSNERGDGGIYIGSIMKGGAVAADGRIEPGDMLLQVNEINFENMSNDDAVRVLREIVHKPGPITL

**Q.** How did the pKd turn out when TGLWKSETTV [ADGRA2, Q96PE1] was run?
**A.** Its pKd is “below the threshold”.

target: TJP1_2, Q07157; experiment: holdup assay; parameters: key: below the threshold = too weak to quantify, mostly under pKd 3.1 to 4; conditions: plain residues with an end cap or a label only (N-terminal biotin on a linker: ado-ado)
Sequence (Q07157 181-274): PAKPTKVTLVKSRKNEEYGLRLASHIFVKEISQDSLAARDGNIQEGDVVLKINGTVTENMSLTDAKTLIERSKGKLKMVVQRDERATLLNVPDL

**Q.** With TGLWKSETTV [ADGRA2, Q96PE1] as the binder, how does the pKd read?
**A.** Its pKd is 3.6.

target: T10, MPDZ_12, O75970; experiment: holdup assay; parameters: key: below the threshold = too weak to quantify, mostly under pKd 3.1 to 4; conditions: plain residues with an end cap or a label only (N-terminal biotin on a linker: ado-ado)
T10 sequence (O75970 1857-1958, limits assumed, looked up): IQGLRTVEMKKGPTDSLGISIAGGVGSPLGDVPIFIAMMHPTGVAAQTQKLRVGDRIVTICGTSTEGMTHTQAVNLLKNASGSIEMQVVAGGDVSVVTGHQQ

**Q.** How did the pKd turn out when TGLWKSETTV [ADGRA2, Q96PE1] was run?
**A.** The pKd was “below the threshold”.

target: GOPC, Q9HD26; experiment: holdup assay; parameters: key: below the threshold = too weak to quantify, mostly under pKd 3.1 to 4; conditions: plain residues with an end cap or a label only (N-terminal biotin on a linker: ado-ado)

**Q.** With TGLWKSETTV [ADGRA2, Q96PE1] as the binder, how does the pKd read?
**A.** Its pKd is 3.78.
